Reference: US20020048584A1, “Method of treating residual HIV-I disease” (priority 2000, published 2002)

Tests used:
[1] = Safety and tolerability of IL-2 and OKT3 stimulation therapy with hydroxyurea and ddI intensification in patients on HAART; type: in vivo, human
Experimental: Treatments with OKT3 and IL-2 are initiated with a physician present during a four to five day admission to the Bone Marrow Transplant Unit. The first dose of IL-2 is given 24 hours after infusion of OKT3, and continued for a total of fourteen days. After 72 hours, if the patient has no or mild adverse side-effects, then the patient can be discharged and followed in the Infectious Disease Clinic as an out-patient, continuing IL-2 administration at home. […] Of note, further treatments with OKT3 may not be possible due to the potential production of human anti-murine antibodies ([…]., et al., Transplant Rev. 5: 181-199, 1991). […] The NIAID standardized toxicity grading system will be utilized (Table 3). Toxicity is graded on a 1 to 4 scale. When toxicity is encountered the dose administered to subjects is modified. […] Level 2 dose reduction will include discontinuation from the study. For hydroxyurea, Level 1 dose reduction will be to 800 mg qday (400 mg po BID).

CD4+ T-lymphocytes = conditions: cited from earlier work
[2] = OKT3 over 5 to 15 minutes on first day, followed by IL-2; cited from earlier work
T-lymphocytes = conditions: solid organ transplant subjects; cited from earlier work
[3] = in vivo; cited from earlier work

O=c1[nH]cnc2c1ncn2[C@H]1CC[C@@H](CO)O1 [ddI, didanosine, reference compound]
serious adverse side-effects ([1]; patient #28, entire trial): did not have serious adverse side-effects

IL-2: cytokine, 15,300 daltons, produced via recombinant DNA technology using genetically-engineered E. coli (Proleukin; Chiron)
serious adverse side-effects ([1]; human, in vivo): did not have serious adverse side-effects
increase in CD4+ T-lymphocytes (CD4+ T-lymphocytes; intravenous 18×10^6 IU per day, five-day treatments every two months, 6 cycles, baseline CD4+ greater than 200 cells/mm^3): approximately 400 cells per mm3
CD4+ T-lymphocyte count, mean value after treatment (CD4+ T-lymphocytes; subcutaneous, 5 day courses every 8 weeks for 6 cycles, starting 7.5×10^6 IU bid, mean 355 at entry): 739

NC(=O)NO [hydroxyurea, reference compound]
serious adverse side-effects ([1]; patient #28, entire trial): did not have serious adverse side-effects

OKT3: purified murine monoclonal antibody (IgG2a) directed to the CD3 antigen of human T-lymphocytic cells
serious adverse side-effects ([1]; human, in vivo): did not have serious adverse side-effects
maximum tolerated dose (MTD) [2]: 400 μg/m^2
time to return of T-cell function to baseline levels after termination (T-lymphocytes): one
chest pain, patients [3]: 14%
dyspnea, patients [3]: 21%
headache, patients [3]: 11%
hypertension, patients [3]: 8%
nausea, patients [3]: 19%
rigor, patients [3]: 8%
tachycardia, patients [3]: 10%
tremor, patients [3]: 13%
vomiting, patients [3]: 19%
wheezing, patients [3]: 13%
